Assay results from US20230242623A1 (GEORGIA TECH RESEARCH, published 2023).

target: T1, SARS-CoV-2 RBD (RBD-luciferase antigen of the split-luciferase reporter) (SARS-CoV-2, UniProt P0DTC2 319-541); assay: split-luciferase reporter of RBD-hACE2 interaction; antibody against hACE2
T1 construct: domain: RBD

Row | Binder | % inhibition of RBD-hACE2 binding [%]
1 | 3B3 (antibody, V domains shown, also called 3B3 clone; 1-3B3) VH: DVQLQESGPGLVKPSQSLSLTCTVTGYSITSDYAWIWIRQFPGNKLEWMAYISYSGTTSYNPSLKSRISITRDTSKNQFFLQLNSVTTEDTATYYCAGRRGAYYGNYEEDYWGRGTSVTVSS VL: QIVLTQSPAIMSASPGEKVTMTCSSSSIVNYMYWYQQKPGSSPRLLIYDTSTLASGVPVRFSGSGSGTSYSLTISRMEAEDAATYYCQQWSSYPYTFGGGTKLEIK | > 80
2 | 3A2 (antibody, V domains shown, also called 3A2 clone) VH: QVTLKESGPGILQPSQTLSLTCSFSGFSLSTSGMGVSWIRQPSGKGLEWLAHIYWDDDKRYNPSLKSRLTISKDTSSSQVFLKITSVDTVDTATYYCARRGPLITTDGTFDVWGAGTTVTVSS VL: DIVMTQSRKFMSTSVGDRVSITCKASQDVGTSVAWYQQKPGQSPKLLIYWASTRHTGVPDRFTGSGSGTDFTLTINSVQSEDLADYFCQQYSSYPYTFGGGTKLEMK | > 80
3 | 3A7 (antibody, V domains shown, also called 3A7 clone) VH: QVTLKESGPGILQPSQTLSLTCSFSGFSLSTSGMGVSWIRQPSGKGLEWLAHIYWDDDKRYNPSLKSRLTISKDTSSSQVFLKITSVDTVDTATYYCARRGPLITTDGTFDVWGAGTTVTVSS VL: DIVMTQSRKFMSTSVGDRVSITCKASQDVGTSVAWYQQKPGQSPKLLIYWASTRHTGVPDRFTGSGSGTDFTLTINSVQSEDLADYFCQQYSSYPYTFGGGTKLEMK | > 80
4 | 3F5 (antibody, V domains shown, also called 1-3F5) VH: QVTLKESGPGILQPSQTLSLTCSFSGFSLSTSGMGVSWIRQPSGKGLEWLAHIYWDDDKRYNPSLKSRLTISKDTSSSQVFLKITSVDTVDTATYYCARRGPLITTDGTFDVWGAGTTVTVSS VL: DIVMTQSRKFMSTSVGDRVSITCKASQDVGTSVAWYQQKPGQSPKLLIYWASTRHTGVPDRFTGSGSGTDFTLTINSVQSEDLADYFCQQYSSYPYTFGGGTKLEMK | > 80
5 | 3F2 (antibody, V domains shown, also called 1-3F2) VH: QVQLQQPGAELVKPGASVKMSCKASGYTFTSYSLHWVKQTPGQGLEWIGAVYPGNDDTSYNQNFKGKATLTADKSSNTAYMQLSSLTSEDSAVYYCARDGYFAMDYWGQGTSVTVSS VL: DIVMSQSPSSLAVSVGEKVTMSCKSSQSLLYSTNQKNYLAWYQQKPGQSPKLLIYWASTRESGVPDRFTGSGSGTDFTLTISSVKAEDLAVYYCHQYYSYPWTFGGGTKLEIK | > 80
6 | 3H2 (antibody, V domains shown, also called 1-3H2) VH: QVQLQQSGAELMKPGASVKISCKATGNTFSNYWIEWVKQRPGHGLEWIGEILPGSDSTNYNEKFKGKATFTADTSSKTAYMQLSSLTSEDSAVYYCARNRFYWYFDVWGAGTTVTVSS VL: DVVMTQTPLSLPVSLGDQASISCRSSQSLVHSNGNTYLHWYLQKPGQSPKLLIYKVSNRFSGVPDRFSGSGSGTDFTLKISRVEAEDLGIYFCSQSTHVPWTFGGGTKLEIK | > 80
